# Results as given in patent US20140037650A1 (UNIVERSITY OF CHICAGO, published 2014).
# T1: GST-tagged IsdA (Staphylococcus aureus, UniProt A5IS16 47-316)
# T1 sequence: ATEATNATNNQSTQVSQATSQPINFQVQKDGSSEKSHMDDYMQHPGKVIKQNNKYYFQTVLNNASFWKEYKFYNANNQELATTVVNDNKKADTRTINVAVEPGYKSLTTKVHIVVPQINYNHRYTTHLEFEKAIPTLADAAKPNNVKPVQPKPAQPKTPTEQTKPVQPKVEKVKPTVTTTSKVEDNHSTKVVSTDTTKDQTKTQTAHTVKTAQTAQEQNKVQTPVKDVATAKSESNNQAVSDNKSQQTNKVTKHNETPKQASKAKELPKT
# Experiments:
# GST-tagged IsdA = biological target: T1, GST-tagged IsdA; test: cell-based or functional assay
# GST-tagged IsdBC = GST-tagged IsdBC (Staphylococcus aureus Newman, UniProt A5IS15 328-645); test: cell-based or functional assay
# [1] = biological target: T2, Poly-histidine tagged IsdB (Staphylococcus aureus, UniProt A5IS15 41-613); test: ELISA, coated poly-His IsdB
# T2 construct: also called IsdBFL; recombinant IsdB
# Method: Proteins were used to coat Nunc MaxiSorp 96-well plates at a concentration of 1 μg ml⁻¹ PBS. Plates were washed and incubated with PBS-Tween and variable concentrations of MAbs.
Binder,Δheme binding: percent change in Δ peak absorbance at 405 nm and 368 nm (GST-tagged IsdA) [%],Δheme binding: percent change in Δ peak absorbance at 405 nm and 368 nm (GST-tagged IsdBC) [%],binding result [1]
"MAb 7D4 (antibody, V domains shown) VH: EVQLQESGPELVKPGTSVWISCKTSGFTFTKYTMHWVKQSHGKTLEWIGGIDPNNGDTSYNQKFKDKATLTVDKSSSTAYMELRSLTSEDSAVFFCVRLEGSLPLDYWGQGTTLTVSS VL: DVGMTQTPLSLPVSLGDQASISCGSSQSLLHSNGKTYLHWYLQKPGQSPKLLIYKVSNRFSGVPDRFSGSGSGTYFTLKITRVEAEDLGVYFCSQTTHVPFTFGSGTKLEIK",-0.6,,
"MAb 1B8 (antibody, V domains shown) VH: EVQLQESGPELVKPGTSVWISCKTSGFTFTKYTMHWVKQSHGKTLEWIGGIDPNNGDTSYNQKFKDKATLTVDKSSSTAYMELRSLTSEDSAVFFCVRLEGSLPLDYWGQGTTLTVSS VL: DVVMTQTPLSLPVSLGDQASISCRSSQSLVHSNGNTYLHWYLQKPGQSPKLLIYKVSSRFSGVPDRFSGSGSGTDFTLKISRVEAEDLGVYFCSQSTHVPYTFGGGTKLEIKR",0.5,,
"MAb 3D8 (antibody, V domains shown) VH: QVQLQQSGAELVRPGTSVKVSCKASGNAFTNYLIEWIKQRPGQGLEWIGVINPGSGITNYNEKFKGKATLTADKSSNTAYMQLSSLSSDDSAVYFCSGSANWFAYWGQGTLVTVSA VL: DVVMTQTPLSLPVSLGDQASISCRSSQSLVYSNGNTYLHWFLQKPGQSPKLLIYKVSNRFSGVPDRFSGSGSGTDFTLKISRVEAEDLGVYFCSQTTHIPLTFGAGTKLELK",34,29.4,
"MAb 4H7 (antibody, V domains shown) VH: EVQLLQSGPELVKPGTSVKMSCRTSGYTFTEYTMHWVKQSHEKRLEWIGGIDPSNGDTSYNQKFKGKATLTVDKSSSSAYMDLRSLTSVDSAIYYCARLEGVLPLDYWGHGTTLTVSS VL: DVVMTQTPLSLPVSLGDQASISCRSSQSLVYSNGNTYLHWFLQKPGQSPKLLIYKVSNRFSGVPDRFSGSGSGTDFTLKISRVEAEDLGVYFCSQTTHIPLTFGAGTKLELK",34.4,29,
"MAb 7E9 (antibody, V domains shown) VH: DVQLQESGPGLVKPSQSLSLTCSVTGHSITSGYYWNWIRQFPGNKLEWMGYISFDGRNKYNPSLKNRISITRDTSKNQFFLKLNSVTSEDTATYFCTRLSYSTLDYWGQGTSVTVSS VL: DVVMTQTPLSLPVSLGDQASISCRSSQSLLYSNGNTYLHWYLQKPGQSPKLLIYKVSNRFSGVPDRFSASGSGTDFTLKISRVEAEDLGVYFCSQSTHVPLTFGAGTKLELK",35,29,
"MAb 5H8 (antibody, V domains shown, also called 5H8.9) VH: GLTGEPGTSVKMSCRTSGYTFTEYTMHWVKQSHEKRLEWIGGIDPSNGDTSYNQKFKGKATLTVDKSSSSAYMDLRSLTSVDSAIYYCARLEGVLPLDYWGHGTTLTVSS VL: DIVMTQSQKFMSTSVRDRVAVTCKASQNVGTNVAWYQQKPGQSPKALIYSASYRYSGVPDRFTGSGSGTDFTLTISNVQSEDLAEYFCQQYNSYPYTFGGGTKLEVK",0.5,,no binding
"MAb 3H11 (antibody, V domains shown, also called 3H11.47) VH: SLDLTGEPGASVKMSCRTSGYTFTEYTMHWVKQSHEKSLEWIGGIDPDNGDTSFNQKFKGKATLTVDKSSSTAYMELRSLTYDDTAIYLCARLEGVLPLDYWGQGTTLTVSS VL: DIVMTQSQKFMSTSVRDRVAVTCKASQNVGTNVAWYQQKPGQSPKALIYSASYRYSGVPDRFTGSGSGTDFTLTISNVQSEDLAEYFCQQYNSYPYTFGGGTKLEVK",0.5,,no binding
